Here are results for one substance from article PMC8096781.

The assay deals with endogenous PKM2 (HeLa cells) (human (endogenous in HeLa)) (UniProt P14618). Description: SEC; gel chromatography (Superdex 200, cold PBS, 4 °C, 0.3 mL/min) of extracts of HeLa cells with vector, FOXM1A or FOXM1D; fractions analysed by western blot.

endogenous PKM2 (HeLa cells), P14618 1-531 (enzyme; other documents disagree on this pair), sequence (P14618 whole entry): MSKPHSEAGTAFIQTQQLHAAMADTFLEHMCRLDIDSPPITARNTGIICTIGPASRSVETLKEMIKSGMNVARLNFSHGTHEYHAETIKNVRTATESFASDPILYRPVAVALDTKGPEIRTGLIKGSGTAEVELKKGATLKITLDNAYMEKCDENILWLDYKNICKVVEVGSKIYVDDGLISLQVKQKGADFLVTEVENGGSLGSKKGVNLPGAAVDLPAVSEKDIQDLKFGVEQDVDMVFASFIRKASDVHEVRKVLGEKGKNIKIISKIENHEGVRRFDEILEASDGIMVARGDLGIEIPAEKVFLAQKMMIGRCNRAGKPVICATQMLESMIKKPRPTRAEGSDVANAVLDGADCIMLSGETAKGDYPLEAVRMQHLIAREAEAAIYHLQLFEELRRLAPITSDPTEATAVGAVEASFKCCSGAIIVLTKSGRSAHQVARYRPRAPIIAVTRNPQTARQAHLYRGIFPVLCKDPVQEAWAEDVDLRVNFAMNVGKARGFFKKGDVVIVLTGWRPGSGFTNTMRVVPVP

As usually defined, the stoichiometry N is a count of units in the complex or per binding partner. In the case of “endogenous PKM2 (HeLa cells), P14618 1-531 (enzyme; other documents disagree on this pair)”, the stoichiometry N was 2.
